Measurements reported in patent EP0568622B1.

Biological target: rat/human corticotropin releasing factor (r/h CRF), 41-residue peptide (rat/human (same molecule))
Assay: method not stated

Kd: 0.1 nM
Substance: recombinant rat CRF-binding protein (rCRF-BP), secreted by transfected COS7 cells
